Values quoted from earlier work, collected in publication PMC3436762.

Biological target: TRAIL (Homo sapiens) (UniProt P50591)
Conditions: cited from earlier work

Chain of UniProt P50591 (P50591 whole entry): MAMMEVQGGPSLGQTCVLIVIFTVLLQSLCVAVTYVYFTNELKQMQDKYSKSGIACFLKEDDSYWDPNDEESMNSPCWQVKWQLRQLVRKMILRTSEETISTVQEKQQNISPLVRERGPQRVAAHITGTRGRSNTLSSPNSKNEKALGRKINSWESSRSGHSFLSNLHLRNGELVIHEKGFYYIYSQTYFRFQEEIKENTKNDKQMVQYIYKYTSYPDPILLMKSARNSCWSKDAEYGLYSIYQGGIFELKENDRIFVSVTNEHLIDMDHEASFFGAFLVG

osteoprotegerin (from UniProt O00300)
Kd: 0.4 µM
